From the supplement of paper PMC9112550, “Optimization of the antimicrobial peptide Bac7 by deep mutational scanning” (BMC Biology, 2022) come the findings set out here.

The subject of the data set is Escherichia coli TOP10. As to the kind of experiment: shrunken log2 fold change of peptide-encoding DNA abundance (4.5 h post-induction vs induction); higher = less antimicrobial activity (less host growth inhibition). Conditions: time post-induction: 4.5 h; library: site-saturation at positions 5, 18, 19, 20.
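Note: peptides expressed intracellularly from a pBAD plasmid library in pooled LB shake-flask culture, induced with 0.3% L-arabinose, DNA abundance read by NGS, three biological replicates, DESeq2 with apeglm shrinkage.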

With RRIRCRPPRLPRPRPRPDTWPRP, the “shrunken log2 fold change” value is -0.234.
In the case of RRIRNRPPRLPRPRPRPGCMPRP, the “shrunken log2 fold change” value was found to be 0.0522.
With RRIRFRPPRLPRPRPRPEIDPRP, the “shrunken log2 fold change” value amounted to 0.0823.
For the sequence RRIRFRPPRLPRPRPRPYNRPRP, the “shrunken log2 fold change” value was -0.262.
Turning to RRIRVRPPRLPRPRPRPSTEPRP, the “shrunken log2 fold change” value is -0.331.
Consider RRIRIRPPRLPRPRPRPLDYPRP, for which the “shrunken log2 fold change” value is -0.504.
Then RRIRQRPPRLPRPRPRPTIYPRP, with -0.552.
For RRIRKRPPRLPRPRPRPGWAPRP, the “shrunken log2 fold change” value was 1.04.
Then RRIRCRPPRLPRPRPRPIRLPRP, with -0.0542; and RRIRPRPPRLPRPRPRPKYKPRP, with -0.39.
Then RRIRPRPPRLPRPRPRPIWKPRP, with 0.0296; and RRIRNRPPRLPRPRPRPEYQPRP, with 0.00318.
In the case of RRIRIRPPRLPRPRPRPASGPRP, the “shrunken log2 fold change” value came out at 0.0837.
On to RRIRIRPPRLPRPRPRPDWCPRP, for which the “shrunken log2 fold change” value was -0.149.
RRIRDRPPRLPRPRPRPYVLPRP: the “shrunken log2 fold change” value is -0.347.
Then RRIRTRPPRLPRPRPRPMQVPRP, with -0.21; and RRIRWRPPRLPRPRPRPPWHPRP, with 0.134; and RRIRKRPPRLPRPRPRPIPNPRP, with 0.159.
Then RRIRYRPPRLPRPRPRPVYEPRP, with 2.81; and RRIRTRPPRLPRPRPRPADNPRP, with -0.294; and RRIRVRPPRLPRPRPRPCTKPRP, with -0.275.
In the case of RRIRTRPPRLPRPRPRPCNKPRP, the “shrunken log2 fold change” value was -0.121.
Take RRIRLRPPRLPRPRPRPGACPRP: the “shrunken log2 fold change” value worked out at 0.264.
With RRIRLRPPRLPRPRPRPWKIPRP, the “shrunken log2 fold change” value was 0.095.
Then RRIRFRPPRLPRPRPRPDLSPRP, with -0.0807.
Then RRIRDRPPRLPRPRPRPTLTPRP, with 0.717; and RRIRFRPPRLPRPRPRPAPKPRP, with 0.379; and RRIRDRPPRLPRPRPRPQGVPRP, with 0.0763.
Then RRIRQRPPRLPRPRPRPPVAPRP, with 0.121; and RRIRLRPPRLPRPRPRPKGLPRP, with -0.0393; and RRIRRRPPRLPRPRPRPNQAPRP, with 0.212.
With RRIRCRPPRLPRPRPRPMEKPRP, the “shrunken log2 fold change” value stood at 0.0833.
Then RRIRTRPPRLPRPRPRPKFGPRP, with -0.00436.
Then RRIRARPPRLPRPRPRPMTHPRP, with 0.151.
Then RRIRHRPPRLPRPRPRPTVKPRP, with -0.255.
Consider RRIRIRPPRLPRPRPRPVSEPRP, for which the “shrunken log2 fold change” value is -0.164.
Then RRIRRRPPRLPRPRPRPRLRPRP, with 0.848; and RRIRSRPPRLPRPRPRPFEMPRP, with -0.353; and RRIRMRPPRLPRPRPRPPHMPRP, with 0.296.
With RRIRGRPPRLPRPRPRPQMQPRP, the “shrunken log2 fold change” value amounted to 1.04.
Turning to RRIRHRPPRLPRPRPRPKQSPRP, the “shrunken log2 fold change” value was -0.248.
Regarding RRIRYRPPRLPRPRPRPEPMPRP, the “shrunken log2 fold change” value was -0.0988.
Regarding RRIRPRPPRLPRPRPRPFAGPRP, the “shrunken log2 fold change” value turned out to be 0.0806.
Then RRIRFRPPRLPRPRPRPNQQPRP, with -0.0474.
As for RRIRARPPRLPRPRPRPTVKPRP, the “shrunken log2 fold change” value turned out to be 0.143.
Turning to RRIRMRPPRLPRPRPRPQVYPRP, the “shrunken log2 fold change” value amounted to 0.0985.
Then RRIRDRPPRLPRPRPRPNFMPRP, with -0.316; and RRIRARPPRLPRPRPRPCDFPRP, with -0.128.
Then RRIRGRPPRLPRPRPRPCINPRP, with 0.573.
Consider RRIRERPPRLPRPRPRPSPWPRP, for which the “shrunken log2 fold change” value was -0.445.
Then RRIRMRPPRLPRPRPRPVVEPRP, with 0.719; and RRIRSRPPRLPRPRPRPGLQPRP, with 0.652; and RRIRGRPPRLPRPRPRPHVTPRP, with 0.00976.
On to RRIRNRPPRLPRPRPRPYQHPRP, for which the “shrunken log2 fold change” value was -0.549.
On to RRIRPRPPRLPRPRPRPSGKPRP, for which the “shrunken log2 fold change” value is -0.247.
Turning to RRIRWRPPRLPRPRPRPIVDPRP, the “shrunken log2 fold change” value is -0.0254.
Then RRIRYRPPRLPRPRPRPMSHPRP, with -0.425.
Then RRIRERPPRLPRPRPRPMHPPRP, with 0.464; and RRIRLRPPRLPRPRPRPTSVPRP, with -0.0387; and RRIRSRPPRLPRPRPRPSMDPRP, with -0.514.
In the case of RRIRSRPPRLPRPRPRPQLFPRP, the “shrunken log2 fold change” value was 0.309.
Then RRIRDRPPRLPRPRPRPVMFPRP, with 0.16.
Then RRIRGRPPRLPRPRPRPLSQPRP, with 0.872; and RRIRHRPPRLPRPRPRPAGDPRP, with 0.309; and RRIRQRPPRLPRPRPRPQRHPRP, with 0.0218.
RRIRPRPPRLPRPRPRPPMFPRP: the “shrunken log2 fold change” value is 0.0198.
Then RRIRHRPPRLPRPRPRPNHHPRP, with -0.797; and RRIRLRPPRLPRPRPRPMMEPRP, with 0.195.
Consider RRIRYRPPRLPRPRPRPEQKPRP, for which the “shrunken log2 fold change” value was determined as 0.0039.
For RRIRDRPPRLPRPRPRPFCDPRP, the “shrunken log2 fold change” value came to 0.167.
On to RRIRARPPRLPRPRPRPNRGPRP, for which the “shrunken log2 fold change” value was determined as 0.108.
Take RRIRVRPPRLPRPRPRPSFHPRP: the “shrunken log2 fold change” value is -0.439.
RRIRYRPPRLPRPRPRPPGIPRP: the “shrunken log2 fold change” value came out at 0.0348.
Then RRIRERPPRLPRPRPRPKFRPRP, with -0.315; and RRIRKRPPRLPRPRPRPMWPPRP, with -0.00167; and RRIRHRPPRLPRPRPRPNEPPRP, with -0.00438.
Regarding RRIRCRPPRLPRPRPRPAQGPRP, the “shrunken log2 fold change” value came to 0.631.
Take RRIRNRPPRLPRPRPRPFCKPRP: the “shrunken log2 fold change” value is -0.835.
For the sequence RRIRARPPRLPRPRPRPACYPRP, the “shrunken log2 fold change” value was 0.489.
For RRIRQRPPRLPRPRPRPAFPPRP, the “shrunken log2 fold change” value stood at 0.0799.
RRIRNRPPRLPRPRPRPNWLPRP: the “shrunken log2 fold change” value was found to be 0.0494.
For RRIRMRPPRLPRPRPRPNAHPRP, the “shrunken log2 fold change” value is 8.74e-05.
Then RRIRFRPPRLPRPRPRPLGEPRP, with 0.0158; and RRIRDRPPRLPRPRPRPQKLPRP, with -0.307.
For RRIRQRPPRLPRPRPRPMRNPRP, the “shrunken log2 fold change” value was -0.0579.
Then RRIRPRPPRLPRPRPRPPIIPRP, with -0.231.
Turning to RRIRERPPRLPRPRPRPSVIPRP, the “shrunken log2 fold change” value is -0.259.
On to RRIRVRPPRLPRPRPRPVTSPRP, for which the “shrunken log2 fold change” value was -0.558.
On to RRIRNRPPRLPRPRPRPDKDPRP, for which the “shrunken log2 fold change” value is -0.253.
Then RRIRQRPPRLPRPRPRPVKPPRP, with -0.00215; and RRIRCRPPRLPRPRPRPDWMPRP, with -0.11; and RRIRRRPPRLPRPRPRPGDKPRP, with -0.292.
Take RRIRLRPPRLPRPRPRPSDLPRP: the “shrunken log2 fold change” value was -0.163.
Then RRIRCRPPRLPRPRPRPVDQPRP, with -0.304; and RRIRSRPPRLPRPRPRPVQEPRP, with 0.403.
Then RRIRPRPPRLPRPRPRPPVAPRP, with 0.366; and RRIRCRPPRLPRPRPRPMHMPRP, with -0.14.
Then RRIRTRPPRLPRPRPRPHLLPRP, with -0.411; and RRIRCRPPRLPRPRPRPQDRPRP, with -0.175.
On to RRIRMRPPRLPRPRPRPVSTPRP, for which the “shrunken log2 fold change” value amounted to 1.96.
For RRIRMRPPRLPRPRPRPEVLPRP, the “shrunken log2 fold change” value is -0.0436.
Then RRIRWRPPRLPRPRPRPVVTPRP, with 0.338; and RRIRRRPPRLPRPRPRPFCCPRP, with 0.343.
Then RRIRGRPPRLPRPRPRPRLYPRP, with 0.291.
With RRIRLRPPRLPRPRPRPGLDPRP, the “shrunken log2 fold change” value is -0.0233.
Then RRIRVRPPRLPRPRPRPLMDPRP, with -0.0628; and RRIRFRPPRLPRPRPRPFSNPRP, with 0.0406.
With RRIRHRPPRLPRPRPRPQIAPRP, the “shrunken log2 fold change” value was -0.103.
Then RRIRIRPPRLPRPRPRPLMKPRP, with -0.232.
RRIRYRPPRLPRPRPRPNSFPRP: the “shrunken log2 fold change” value was -0.0457.
Take RRIRKRPPRLPRPRPRPFNIPRP: the “shrunken log2 fold change” value was determined as 0.186.
On to RRIRYRPPRLPRPRPRPDCTPRP, for which the “shrunken log2 fold change” value was -0.268.
As for RRIRHRPPRLPRPRPRPRTDPRP, the “shrunken log2 fold change” value was 0.0682.
Then RRIRRRPPRLPRPRPRPFSIPRP, with -0.254; and RRIRCRPPRLPRPRPRPHGKPRP, with -0.15.
Regarding RRIRQRPPRLPRPRPRPEESPRP, the “shrunken log2 fold change” value turned out to be 0.0313.
Then RRIRNRPPRLPRPRPRPTRSPRP, with -0.177; and RRIRLRPPRLPRPRPRPKKRPRP, with 0.277.
Then RRIRIRPPRLPRPRPRPHVDPRP, with -0.294; and RRIRPRPPRLPRPRPRPADDPRP, with 0.118; and RRIRDRPPRLPRPRPRPYILPRP, with -0.592.
RRIRSRPPRLPRPRPRPWGGPRP: the “shrunken log2 fold change” value was found to be 0.27.
For the sequence RRIRVRPPRLPRPRPRPLNEPRP, the “shrunken log2 fold change” value is -0.0647.
Take RRIRNRPPRLPRPRPRPSLDPRP: the “shrunken log2 fold change” value was -0.258.
For RRIRARPPRLPRPRPRPMQHPRP, the “shrunken log2 fold change” value stood at 0.642.
